From the supplement of paper PMC10567573

Experiment: protein stability index of a GFP-peptide fusion (GPS, HEK-293T) (PSI 1-6); higher = more stable
Settings: c terminus: native
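Also: lentivirally expressed fusion library, cells FACS-sorted into six equal-sized GFP/DsRed ratio bins, PSI computed from sequencing read fractions per bin weighted by bin number.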

B1: TRPA1 addQ (peptide)
chain: EQRNSRWNTVLRAVKAKTHHLEPQ
protein stability index (parent: NP_015628.1): 4.94

B2: POLD2 addQ (peptide)
chain: CQPISFSGFGAEDDDLGGLGLGPQ
protein stability index (parent: NP_006221.1): 2.97

B3: SNF8 addQ (peptide)
chain: LPALFTDLYSQEITAEEAREALPQ
protein stability index (parent: NP_009172.2): 5.05

B4: PSMB5 addQ (peptide)
chain: DGWIRVSSDNVADLHEKYSGSTPQ
protein stability index (parent: NP_002788.1): 3.53
